Where two headings read alike, the source gives them in different places.

Assay [1] addresses T1, huIL-17RA-FLAG-polyHis (human, UniProt Q96F46 33-320).
T1 construct: also called IL-17RA-FLAG-pHis; wild-type IL-17RA
The assay can be described thus: binning; IL-17RA held by bead mAb K.

Assay [2] addresses T1, huIL-17RA-FLAG-polyHis. The assay can be described thus: binning; IL-17RA held by bead mAb F.
The target in assay [3] is T1, huIL-17RA-FLAG-polyHis. Briefly: binning; IL-17RA held by bead mAb P.
Assay [4] has as its target T1, huIL-17RA-FLAG-polyHis. Briefly: binning; IL-17RA held by bead mAb J.
Assay [5] addresses T1, huIL-17RA-FLAG-polyHis. Briefly: binning; IL-17RA held by bead mAb E.
Assay [6] addresses T1, huIL-17RA-FLAG-polyHis. The assay can be described thus: binning; IL-17RA held by bead mAb H.
Assay [7] concerns the target T1, huIL-17RA-FLAG-polyHis. Briefly: binning; IL-17RA held by bead mAb G.
In assay [8] the target is T1, huIL-17RA-FLAG-polyHis. The assay can be described thus: binning; IL-17RA held by bead mAb B.
The target of assay [9] is T1, huIL-17RA-FLAG-polyHis. Briefly: binning; IL-17RA held by bead mAb O.
The target of assay [10] is T1, huIL-17RA-FLAG-polyHis. The assay can be described thus: binning; IL-17RA held by bead mAb N.
Assay [11] concerns the target T1, huIL-17RA-FLAG-polyHis. Briefly: binning; IL-17RA held by bead mAb M.
Assay [12] has as its target T1, huIL-17RA-FLAG-polyHis. Briefly: binning; IL-17RA held by bead mAb Q.
Assay [13] has as its target T1, huIL-17RA-FLAG-polyHis. Briefly: binning; IL-17RA held by bead mAb R.
Assay [14] deals with T1, huIL-17RA-FLAG-polyHis. The assay can be described thus: binning; IL-17RA held by bead mAb L.
Assay [15] concerns the target T1, huIL-17RA-FLAG-polyHis. Briefly: binning; IL-17RA held by bead mAb A.
Assay [16] has as its target T1, huIL-17RA-FLAG-polyHis. Briefly: binning; IL-17RA held by bead mAb C.
Assay [17] has as its target T1, huIL-17RA-FLAG-polyHis. The assay can be described thus: binning; IL-17RA held by bead mAb D.
The target in assay [18] is T1, huIL-17RA-FLAG-polyHis. Briefly: binning; IL-17RA held by bead mAb I.
Assay [19] addresses T2, cynomolgus IL-17RA, on cells (cynomolgus).
T2 construct: whole, on cells; also called CHO-cynoIL-17RA; cyno IL-17RA+ CHO cells
Briefly: FACS competition: non-clonal supernatant inhibiting biotin-huIL-17A (competitor) binding to cyno IL-17RA+ CHO cells.

The target in assay [20] is T2, cynomolgus IL-17RA, on cells. The assay is described as above. The source holds these as a separate data set.
The target of assay [21] is T3, human IL-17RA, full-length, on cells (human, UniProt Q96F46 33-866). Briefly: cell-based or functional assay.
Assay [22] deals with T3, human IL-17RA, full-length, on cells. Briefly: cell-based or functional assay. This is another data set of the same source.
Assay [23] deals with human IL-17RA (form used in the low resolution BIAcore not stated) (human, UniProt Q96F46 33-320, limits assumed). Briefly: low resolution BIAcore, subcloned hybridoma. Background: In SPR one partner is held on a chip, and binding of the other changes the refractive index at the surface.
Assay [24] concerns the target T3, human IL-17RA, full-length, on cells. Briefly: cell-based or functional assay. The source holds these as a separate data set.

B1: AMH10/AML10 (antibody, IgG2, V domains shown)
VH: QVQLQESGPGLVKPSQTLSLTCTVSGGSISSGGYYWSWIRQHPGKGLEWIGYIYFSGSAYYNPSLKSRVAISVDTSKNQFSLKLSSVTAADTAVYYCAREYYDSSGYPDAFDIWGQGTMVTVSS
VL: DIQMTQSPSSVSASVGDRVTITCRASQGIRSWLAWYQQKPGKAPKLLIFAASSLQSGVPSRFSGSGSGTEFTLTISSLQPEDFATYYCQQANNFPRTFGQGTKVEIK
notes: human mAb from IgG2 XenoMouse mice; also called AM-10; antibody F
In the case of B1, the “normalized MFI” value is 4110 with huIL-17RA-FLAG-polyHis [1]; 187 with huIL-17RA-FLAG-polyHis [2]; 1720 in the assay with huIL-17RA-FLAG-polyHis [3]; 2120 with huIL-17RA-FLAG-polyHis [4]; 175 in the assay with huIL-17RA-FLAG-polyHis [5]; 3970 with huIL-17RA-FLAG-polyHis [6]. Besides, the “normalized MFI” value with huIL-17RA-FLAG-polyHis [7] is 342; with huIL-17RA-FLAG-polyHis [8], 545; with huIL-17RA-FLAG-polyHis [9] it was 2630; with huIL-17RA-FLAG-polyHis [10] it was 1510; with huIL-17RA-FLAG-polyHis [11], 1020; with huIL-17RA-FLAG-polyHis [12], 1650. Further, the “normalized MFI” value is 1120 in the assay with huIL-17RA-FLAG-polyHis [13]; 1720 with huIL-17RA-FLAG-polyHis [14]; 114 with huIL-17RA-FLAG-polyHis [15]; 253 with huIL-17RA-FLAG-polyHis [16]; 179 with huIL-17RA-FLAG-polyHis [17]; 3110 with huIL-17RA-FLAG-polyHis [18].

B2: AMH11/AML11 (antibody, IgG2, V domains shown)
VH: QVQLVESGGGVVQPGRSLRLSCATSGITFSSYGMHWVRQAPGKGLEWVAVIWYDGSNKYYADSVKGRFTISRDNSKNTLYLQMNSLRAEDTAVYYCARDTKDYWGQGTLVTVSS
VL: EIVMTQSPATLSVSPGERATLSCRASQSVSSNLAWYQQKPGQAPRLLIYGASTRAAGIPARFSGGGSGTAFTLTISNLQSEDFAVYYCQHYINWPKWTFGQGTKVDIK
notes: human mAb from IgG2 XenoMouse mice; also called AM-11; antibody A
For B2, the “normalized MFI” value was determined as 7210 in the assay with huIL-17RA-FLAG-polyHis [1]; 345 in the assay with huIL-17RA-FLAG-polyHis [2]; 6590 in the assay with huIL-17RA-FLAG-polyHis [3]; 2320 with huIL-17RA-FLAG-polyHis [4]; 300 with huIL-17RA-FLAG-polyHis [5]; 8640 with huIL-17RA-FLAG-polyHis [6]. In addition, the “normalized MFI” value was 454 in the assay with huIL-17RA-FLAG-polyHis [7]; 1200 with huIL-17RA-FLAG-polyHis [8]; 3800 with huIL-17RA-FLAG-polyHis [9]; 2650 with huIL-17RA-FLAG-polyHis [10]; 1860 in the assay with huIL-17RA-FLAG-polyHis [11]; 9650 in the assay with huIL-17RA-FLAG-polyHis [12]. The “normalized MFI” value was 7060 with huIL-17RA-FLAG-polyHis [13]; 3020 with huIL-17RA-FLAG-polyHis [14]; -220 with huIL-17RA-FLAG-polyHis [15]; 330 in the assay with huIL-17RA-FLAG-polyHis [16]; 337 with huIL-17RA-FLAG-polyHis [17]; 5300 with huIL-17RA-FLAG-polyHis [18]. Also, the MFI in assay [19] was 9.

B3: AMH5/AML5 (antibody, IgG2, V domains shown)
VH: QVQLQESGPGLVKPSETLPLTCTVSGGSIRSYYWSWIRQPAGKGLEWIGRIYRSGNTIYNPSLKSRVTMSIDTSKNQFSLTLSSVTAADTAVYYCARENYSESSGLYYYYGMDVWGQGTTVTVSS
VL: DIQMTQSPSSLSASVGDRVTITCRASQGIRNDLGWYQQKPGKAPKRLIYAASSFQSGVPSRFSGSGSGTGFTLTISSLQPEDFATYYCLQHNSYPPTFGQGTKVEIK
notes: human mAb from IgG2 XenoMouse mice; tested only as part of a non-clonal hybridoma supernatant; also called AM-5
The molecule B3 gave an MFI in assay [19] of 9.

B4: AMH1/AML1 (antibody, IgG2, V domains shown)
VH: QVQLQESGPGLVKPSETLSLTCTVSGGSISNYYWNWIRQSPGKGLEWIGDIYYSGSTNYNPSLKSRVTISVDTSKNQFSLKLSSVTTADTAVYYCARDGELANYYGSGSYQFYYYYGMDVWGQGTTVTVSS
VL: DILMTQSPSSLSASVGDRVTITCRASQGIRNDLGWYQQKPGKAPKRLIYAASSLQSGVPSRFSGSGSGTEFTLTISSLQPEDFATYYCLQHNSNPFTFGPGTKVDIK
notes: human mAb from IgG2 XenoMouse mice; also called AM-1; antibody H
Consider B4, for which the MFI in [19] is 11.

B5: AMH13/AML13 (antibody, IgG2, V domains shown)
VH: QVQLVESGGGVVQPGRSLRLSCAASGFTFSSYGMQWVRQAPGKGLEWVAVIWYDGNKKYYADSVKGRFTISRDNSKNTLYLQMNSLRAEDTAVYYCARGRVRDYYYGMDVWGQGTTVTVSS
VL: DIVMTQTPLSLSVTPGQPASIACKSSQSLLHSDGKTYLYWYLQKPGQPPQLLIYEVSTRFSGVPDRFSGSGSGTDFTLKISRVEAEDVGVFYCMQSIQLPLTFGGGTKVEIK
notes: human mAb from IgG2 XenoMouse mice; also called AM-13
As a reminder, the Kd is the equilibrium constant for the complex coming apart. A lower Kd goes with higher affinity. B5 returned an MFI in [20] of 6. The “IL-17A/HFF bioassay IC50, subclone 13” value in [21] is more than 10 nM. In assay [22], the “% inhibition of IL-6 Production, IL-17A/HFF bioassay, non-clonal supernatant 1:4” value is 73%; the “% inhibition of IL-6 Production, IL-17A/HFF bioassay, non-clonal supernatant 1:32” value was 78%; the “% inhibition of IL-6 Production, IL-17A/HFF bioassay, non-clonal supernatant 1:128” value is 75%. Moreover, the affinity in [23], expressed as Kd, was 7.6 nM.

B6: AMH19/AML19 (antibody, IgG2, V domains shown)
VH: QVQLVQSGAEVKKPGASVKVSCKASGYTLTSYGISWVRQAPGQGLEWMGWISAYSGNTKYAQKFQGRVTMTTDTSTSTAYMELRSLRSDDTAVYYCARRQLALDYWGQGTLVTVSS
VL: EIVMTQSPATLSVSPGERATLSCRASQSISSNLAWYQQKPGQAPRLLIYGASTRATGIPARFSDNGSGTEFTLTISSLQSEDFAVYFCQQYDTWPLTFGGGTKVEIK
B6: in [21], the “IL-17A/HFF bioassay IC50, subclone 10” value was 0.22 nM; the “IL-17A/HFF bioassay IC50, subclone 11” value turned out to be 1.1 nM; the “IL-17A/HFF bioassay IC50, subclone 12” value amounted to 0.5 nM. In addition, in [24], the “IL-17A/HFF IC50” value stood at 0.2 nM, the “IL-17A/lung fibroblast IC50” value is 0.22 nM and the “IL-17F/HFF IC50” value was 0.087 nM.

B7: AMH22/AML22 (antibody, IgG2, V domains shown)
VH: QVQLVQSGAEVKKPGASVKVSCKASGYTFTRYGISWVRQAPGQGLEWMGWISAYSGNTNYAQKLQGRVTMTTDTSTSTAYMELRSLRSDDTAVYYCARRQLYFDYWGQGTLVTVSS
VL: EIVMTQSPATLSVSPGERVTLSCRASQSVSSNLAWFQQKPGQAPRPLIYDASTRAAGIPARFSGSGSGTDFTLTISSLQSEDFAVYYCQQYDNWPLTFGGGTKVEIK
notes: human mAb from IgG2 XenoMouse mice; also called AM-22; antibody I
In assay [19], B7 had an MFI of 18.

The values above are taken from US20120251547A1 (Amgen, published 2012).
